Measured values from the supplement of paper PMC9170038.

Tested on: MS2 coat protein
Assay: apparent KD of MS2 coat protein; designed switch direction (-1 OFF switch, 1 ON switch): -1; higher = weaker reporter binding
Procedure, shortened: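 RNA switches sharing common flanks were transcribed by stalled E. coli RNA polymerase on Illumina chips. A doubling series of SNAP-549-labelled MS2 coat protein, from 0.7 or 1.5 nM to 3 µM, was applied in Tris-HCl pH 7.5 buffer with KCl, MgCl2, BSA, DTT, tRNA and Tween-20. Each step lasted 0.8–1.5 h at the bottom of the series and 10–20 min at the top. Normalised cluster fluorescence was curve-fitted, giving apparent KD as the per-design median over clusters.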

[1] = Eterna round: R95, input ligand: FMN 200 uM
[2] = Eterna round: R95, input ligand: microRNA oligo, concentration not stated
[3] = Eterna round: R95, input ligand: none
[4] = input ligand: microRNA oligo, concentration not stated

Row | Sequence | apparent KD of MS2 coat protein [1] [nM] | apparent KD of MS2 coat protein [2] [nM] | apparent KD of MS2 coat protein [3] [nM] | apparent KD of MS2 coat protein (input ligand: FMN 200 uM) [nM] | apparent KD of MS2 coat protein (input ligand: none) [nM] | apparent KD of MS2 coat protein [4] [nM]
1 | GAUUGACAUGAGGAUCACCCAUGUGAGGAUAUCGGCCGGACCUUGUUAGCUUCCAGCGCGAGAAGGCGCAUAGG [Exclusion 1 V36] (puzzle: Exclusion 1) | 58.9 | 28.6 | 43.4 | – | – | –
2 | GAUUGACAUGAGGAUCACCCAUGUGAGGAUAUCGGCUGGACCGUGUUGGCUUGGGUUUCGAGAAGGCGCAUAGG [Exclusion 1 V46] (puzzle: Exclusion 1) | 70.5 | 88.2 | 74.6 | – | – | –
3 | GCAAGCUUAAUCACUAUGAACAUGAGGAUCACCCAUGUAUAAGGUAUUACUUUUGGGCCCUUUAUUACUCGUCUUAU [JR_STOV1_Sub031] (Eterna round: R97, puzzle: Sensor, turn-off variant 1) | – | – | – | 51.9 | 54.4 | –
4 | GCACGAAGUGUAGGAUAUCUGUGCGAUUAGCUCAGAGAAGGACACAUGAGGAUCACCCAUGUGUUCCACGGAAACGAAACGUGC [Eli exng1 - 053] (Eterna round: R96, puzzle: Exclusion NG 1) | – | – | – | 9.14 | 11.9 | 8.47
5 | GCACGGAGUGUAGGAUAUCUGUGCGAUUAGCUCAGAGAAGGACACAUGAGGAUCACCCAUGUGUACCUCAACAUUAAUCCGUGC [Eli exng1 - 075] (Eterna round: R96, puzzle: Exclusion NG 1) | – | – | – | 10.1 | 10.1 | 6.62
6 | GCACGGAGUGUAGGAUAUUAGUGCGAUUAGCACUGAGAAGGACAUGAGGAUCACCCAUGUUCCUCAAUAAUUAGCCUUCCGUGC [Eli exng1 - 038] (Eterna round: R96, puzzle: Exclusion NG 1) | – | – | – | 15.2 | 15.7 | 9.61
7 | GCACGGAUGGUAGGAUAUCAUUGCGAUUAGCUAUGAGAAGGGCCACAUGAGGAUCACCCAUGUCCUCUAAUUAGCCUUCCGUGC [Eli exng1 - 018] (Eterna round: R96, puzzle: Exclusion NG 1) | – | – | – | – | – | 82.3
8 | GCACUGCGAGGAUAUACAUGAGGAUCACCCAUGUGUCGGCAGCCAUGCCAGUACAAAUGUAGAAGGCGCGUAAA [EX3 #55] (Eterna round: R97, puzzle: Exclusion 3) | – | – | – | 88.1 | 27 | –
9 | GCACUGCGAGGAUAUACAUGAGGAUCACCCAUGUGUCGGCAGCCAUGUUAUUUCUAAUGUAGAAGGCGCGUAAA [JR_Ex3_Sub001] (Eterna round: R97, puzzle: Exclusion 3) | – | – | – | 125 | 33 | –
10 | GCACUUGAACAUGAGGAUCACCCAUGUGUUUUUCUUGUUCGGCAGGAUAUCGUCUAGCGCCAGGACGAGAAGGGCCAAUAAAAG [Ratiarveed] (Eterna round: R96, puzzle: Exclusion NG 3) | – | – | – | 77.8 | 141 | 61
11 | GCAGAAUGAGUUAGGAUAUGAUGAUUUUUCGGAUAUCAGAAGGAACUUGAGGAUCACCCAAGUUAAGAUAGGGU [JR_BMEx4_Sub066] (Eterna round: R97, puzzle: Brourd's mod of Exclusion 4) | – | – | – | 258 | 170 | –
12 | GCAGCAUAGAUAACAGUCUGAUACAUGAGGAUCACCCAUGUGCAGGAUAUGGUCUGGAUUACAGGCCAGAAGGGUACAAGCUGC [Eli exng3 - 015] (Eterna round: R96, puzzle: Exclusion NG 3) | – | – | – | 10.4 | 13.4 | 7.84
13 | GCAGCAUAGAUGAAAAUCUGAUACAUGAGGAUCACCCAUGUUCAGGAUAUGGUCUGGAUUACAGGCCAGAAGGGAACAAGCUGC [Eli exng3 - 011] (Eterna round: R96, puzzle: Exclusion NG 3) | – | – | – | 14 | 12 | 10.3
14 | GCAGCAUAGUCCAAAUAGGACAUACAUGAGGAUCACCCAUGUCAGGAUAUGGUCUGGAUUACAGGCCAGAAGGGACGUAGCUGC [Eli exng3 - 004] (Eterna round: R96, puzzle: Exclusion NG 3) | – | – | – | 25.9 | 23.6 | 20.9
15 | GCAGCAUAGUUUACUAACUGUUACAUGAGGAUCACCCAUGUCUAGGAUAUGGUCUGGAUUACAGGCCAGAAGGAGGCAAGCUGC [Eli exng3 - 035] (Eterna round: R96, puzzle: Exclusion NG 3) | – | – | – | 11.8 | 19.8 | 16.8
16 | GCAGCAUAGUUUACUAACUGUUACAUGAGGAUCACCCAUGUUUAGGAUAUGGUCUGGAUUACAGGCCAGAAGGAAACAAGCUGC [Eli exng3 - 033] (Eterna round: R96, puzzle: Exclusion NG 3) | – | – | – | 12.8 | 12.4 | 9.51
17 | GCAGCUUAGUUAACAGACUGUUACAUGAGGAUCACCCAUGUACAGGAUAUGGUCUGGAUUACAGGCCAGAAGGGUACAAGCUGC [Eli exng3 - 018] (Eterna round: R96, puzzle: Exclusion NG 3) | – | – | – | 9.62 | 11.5 | 9.01
18 | GCAGGAUAAGUGAGGAUAUACCUAUGGAUACAUAGGUAGAAGGCACAUGAGGAUCACCCAUGUUCCUAACCUGC [Fiskers BMX 4 - 68] (puzzle: Brourd's mod of Exclusion 4) | 70.9 | 12.8 | 15.1 | – | – | –
19 | GCAGGUCGAGGAUAUACAUGAGGAUCACCCAUGUGGUCACGUGACGAUAGUCACGAAUGUAGAAGGUGACCUGC [E3/3-B2] (Eterna round: R97, puzzle: Exclusion 3) | – | – | – | 3.13 | 207 | –
20 | GCAGGUCGAGGAUAUACAUGAGGAUCACCCAUGUUGAUCAAGCGACUUCGGUCGCAAUGUAGAAGGCGACCUGC [E3/7-A6] (Eterna round: R97, puzzle: Exclusion 3) | – | – | – | 151 | 1210 | –
21 | GCAGGUUAAGUCAGGAUAUACCUAUGGAUACAUAGGUAGAAGGGACAUGAGGAUCACCCAUGUGCCUCACCUGC [Fiskers BMX 4 - 19] (puzzle: Brourd's mod of Exclusion 4) | – | 16.8 | – | – | – | –
22 | GCAGGUUAAGUCAGGAUAUACCUAUGGAUACAUAGGUAGAAGGGACAUGAGGAUCACCCAUGUGCCUCACCUGC [Mod of Eli - Jieux - Brourd's mod of Exclusion 4] (Eterna round: R97, puzzle: Brourd's mod of Exclusion 4) | – | – | – | 109 | 26.1 | –
